# Test results taken from article PMC9482650, “Quantitative fragmentomics allow affinity mapping of interactomes” (Nature Communications, 2022).
# T1: ARHGEF11, O15085
# T1 sequence (O15085 42-136, limits assumed, looked up): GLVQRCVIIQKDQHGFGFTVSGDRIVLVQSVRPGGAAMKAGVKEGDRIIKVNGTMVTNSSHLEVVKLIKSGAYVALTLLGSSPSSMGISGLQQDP
# T2: CARD11, Q9BXL7
# T2 sequence (Q9BXL7 662-765, limits assumed, looked up): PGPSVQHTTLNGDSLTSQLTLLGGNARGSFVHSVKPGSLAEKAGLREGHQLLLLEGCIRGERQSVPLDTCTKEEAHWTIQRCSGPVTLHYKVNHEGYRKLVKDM
# T3: DVL3, Q92997
# T3 sequence (Q92997 244-331, limits assumed, looked up): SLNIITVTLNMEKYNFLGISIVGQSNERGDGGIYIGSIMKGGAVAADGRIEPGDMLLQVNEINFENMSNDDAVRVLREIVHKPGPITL
# T4: FRMPD1, Q5SYB0
# T4 sequence (Q5SYB0 52-145, limits assumed, looked up): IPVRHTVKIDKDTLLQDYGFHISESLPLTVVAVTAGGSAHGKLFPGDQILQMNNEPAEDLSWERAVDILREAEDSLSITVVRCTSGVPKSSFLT
# T5: GRIP1_4, Q9Y3R0
# T5 sequence (Q9Y3R0 467-571, limits assumed, looked up): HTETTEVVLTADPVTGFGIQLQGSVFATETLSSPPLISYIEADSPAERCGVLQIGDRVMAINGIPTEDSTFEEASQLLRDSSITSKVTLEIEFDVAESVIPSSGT
# T6: HTRA4, P83105
# T6 sequence (P83105 378-476, limits assumed, looked up): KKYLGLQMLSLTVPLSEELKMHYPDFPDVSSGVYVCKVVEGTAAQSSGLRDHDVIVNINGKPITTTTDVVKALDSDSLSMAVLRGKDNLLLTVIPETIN
# T7: LNX2_2, Q8N448
# T7 sequence (Q8N448 334-432, limits assumed, looked up): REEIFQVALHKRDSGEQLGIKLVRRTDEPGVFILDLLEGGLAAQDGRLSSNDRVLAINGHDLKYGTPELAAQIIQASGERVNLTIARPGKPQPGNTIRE
# T8: LNX2_3, Q8N448
# T8 sequence (Q8N448 463-564, limits assumed, looked up): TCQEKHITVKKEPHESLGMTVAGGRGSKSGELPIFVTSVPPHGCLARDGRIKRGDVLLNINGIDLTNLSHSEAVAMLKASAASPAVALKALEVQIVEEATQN
# T9: PDZD2_2, O15018
# T9 sequence (O15018 329-429, limits assumed, looked up): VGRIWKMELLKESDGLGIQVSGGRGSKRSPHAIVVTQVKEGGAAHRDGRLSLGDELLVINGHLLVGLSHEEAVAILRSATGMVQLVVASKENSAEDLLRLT
# T10: PDZRN3_1, Q9UPQ7
# T10 sequence (Q9UPQ7 244-349, limits assumed, looked up): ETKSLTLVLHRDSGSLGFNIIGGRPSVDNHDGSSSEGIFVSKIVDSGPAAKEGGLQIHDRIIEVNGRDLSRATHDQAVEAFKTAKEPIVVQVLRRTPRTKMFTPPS
# T11: PTPN13_1, Q12923
# T11 sequence (Q12923 1088-1188, limits assumed, looked up): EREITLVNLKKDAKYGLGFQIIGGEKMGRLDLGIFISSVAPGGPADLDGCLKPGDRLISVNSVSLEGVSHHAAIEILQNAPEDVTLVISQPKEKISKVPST
# T12: RAPGEF6, Q8TEU7
# T12 sequence (Q8TEU7 525-625, limits assumed, looked up): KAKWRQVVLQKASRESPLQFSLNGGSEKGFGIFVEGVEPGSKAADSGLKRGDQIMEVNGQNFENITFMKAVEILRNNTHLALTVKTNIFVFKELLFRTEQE
# What was measured:
# Assay in all cases: holdup assay
# Design in all cases: key: below the threshold = too weak to quantify, mostly under pKd 3.1 to 4
# Conditions in all cases: plain residues with an end cap or a label only (N-terminal biotin on a linker: ado-ado)
# [1] = target: T1, ARHGEF11, O15085
# [2] = target: T2, CARD11, Q9BXL7
# [3] = target: DLG5_1, Q8TDM6
# [4] = target: T3, DVL3, Q92997
# [5] = target: T4, FRMPD1, Q5SYB0
# [6] = target: GORASP1, Q9BQQ3
# [7] = target: GRID2IP_2, A4D2P6
# [8] = target: T5, GRIP1_4, Q9Y3R0
# [9] = target: GRIP2_3, Q9C0E4
# [10] = target: GRIP2_6, Q9C0E4
# [11] = target: T6, HTRA4, P83105
# [12] = target: Inadl_3, Q8NI35
# [13] = target: LIMK2, P53671
# [14] = target: LNX1_3, Q8TBB1
# [15] = target: T7, LNX2_2, Q8N448
# [16] = target: T8, LNX2_3, Q8N448
# [17] = target: MAGI1_2, Q96QZ7
# [18] = target: MAGI2_5, Q86UL8
# [19] = target: NHERF4_2, Q86UT5
# [20] = target: NOS1, P29475
# [21] = target: PARD3_3, Q8TEW0
# [22] = target: T9, PDZD2_2, O15018
# [23] = target: T10, PDZRN3_1, Q9UPQ7
# [24] = target: T11, PTPN13_1, Q12923
# [25] = target: T12, RAPGEF6, Q8TEU7
# [26] = target: SNX27, Q96L92
# Chain of GRID2IP_2, A4D2P6 (A4D2P6 272-370): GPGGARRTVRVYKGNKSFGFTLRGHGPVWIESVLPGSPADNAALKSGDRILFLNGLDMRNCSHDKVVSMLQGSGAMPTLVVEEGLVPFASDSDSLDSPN
# Chain of MAGI2_5, Q86UL8 (Q86UL8 915-1017): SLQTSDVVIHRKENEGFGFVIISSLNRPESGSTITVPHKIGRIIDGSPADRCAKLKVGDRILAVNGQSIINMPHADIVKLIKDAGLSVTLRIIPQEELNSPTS
# Chain of LIMK2, P53671 (P53671 143-248): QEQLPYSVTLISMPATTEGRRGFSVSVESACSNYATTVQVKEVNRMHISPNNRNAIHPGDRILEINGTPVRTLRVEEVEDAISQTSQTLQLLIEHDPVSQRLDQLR
# Chain of GRIP2_6, Q9C0E4 (Q9C0E4 648-740): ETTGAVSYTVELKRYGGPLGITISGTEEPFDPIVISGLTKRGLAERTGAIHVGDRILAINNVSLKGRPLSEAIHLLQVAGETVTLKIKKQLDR
# Chain of NHERF4_2, Q86UT5 (Q86UT5 220-308): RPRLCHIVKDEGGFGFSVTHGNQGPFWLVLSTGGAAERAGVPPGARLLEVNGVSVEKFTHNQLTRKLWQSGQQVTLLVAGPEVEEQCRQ
# Chain of DLG5_1, Q8TDM6 (Q8TDM6 617-713): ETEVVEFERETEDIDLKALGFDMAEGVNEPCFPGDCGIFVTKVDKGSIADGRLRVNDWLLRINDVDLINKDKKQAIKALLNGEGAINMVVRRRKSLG
# Chain of LNX1_3, Q8TBB1 (Q8TBB1 500-596): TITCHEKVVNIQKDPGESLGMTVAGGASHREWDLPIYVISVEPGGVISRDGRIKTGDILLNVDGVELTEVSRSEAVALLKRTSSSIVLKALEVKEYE
# Chain of Inadl_3, Q8NI35 (Q8NI35 359-469): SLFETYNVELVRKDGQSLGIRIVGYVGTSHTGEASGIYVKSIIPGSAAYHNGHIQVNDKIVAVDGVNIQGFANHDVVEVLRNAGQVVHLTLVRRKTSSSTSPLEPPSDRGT
# Chain of PARD3_3, Q8TEW0 (Q8TEW0 582-685): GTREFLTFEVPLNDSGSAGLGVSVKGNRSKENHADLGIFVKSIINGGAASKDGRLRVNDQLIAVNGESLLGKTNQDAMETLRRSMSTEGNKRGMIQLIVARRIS
# Chain of NOS1, P29475 (P29475 9-101): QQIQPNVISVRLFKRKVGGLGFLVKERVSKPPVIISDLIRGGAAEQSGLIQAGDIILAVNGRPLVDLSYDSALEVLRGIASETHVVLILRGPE
# Chain of GRIP2_3, Q9C0E4 (Q9C0E4 238-339): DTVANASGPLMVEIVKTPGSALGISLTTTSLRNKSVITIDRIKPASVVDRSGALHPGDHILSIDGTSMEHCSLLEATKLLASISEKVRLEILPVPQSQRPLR
# Chain of MAGI1_2, Q96QZ7 (Q96QZ7 456-580): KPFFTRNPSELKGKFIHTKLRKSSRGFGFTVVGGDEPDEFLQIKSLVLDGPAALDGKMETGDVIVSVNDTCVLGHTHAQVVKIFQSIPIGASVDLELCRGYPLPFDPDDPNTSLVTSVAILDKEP
# Chain of GORASP1, Q9BQQ3 (Q9BQQ3 1-208): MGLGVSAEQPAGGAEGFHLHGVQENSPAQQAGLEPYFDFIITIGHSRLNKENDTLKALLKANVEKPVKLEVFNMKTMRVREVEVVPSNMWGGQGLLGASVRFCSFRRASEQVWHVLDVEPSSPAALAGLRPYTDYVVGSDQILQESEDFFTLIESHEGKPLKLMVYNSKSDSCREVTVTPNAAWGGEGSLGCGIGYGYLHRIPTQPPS
Binder,pKd [1],pKd [2],pKd [3],pKd [4],pKd [5],pKd [6],pKd [7],pKd [8],pKd [9],pKd [10],pKd [11],pKd [12],pKd [13],pKd [14],pKd [15],pKd [16],pKd [17],pKd [18],pKd [19],pKd [20],further results
"ILRKSTTTTV [PRR16, Q569H4]",4.04,below the threshold,below the threshold,below the threshold,below the threshold,4.19,3.8,below the threshold,below the threshold,below the threshold,4.12,below the threshold,below the threshold,below the threshold,4.84,below the threshold,4.76,below the threshold,below the threshold,below the threshold,pKd [21]: below the threshold; pKd [22]: 4.18; pKd [23]: below the threshold; pKd [24]: below the threshold; pKd [25]: below the threshold; pKd [26]: 5.15
"VKRNSKETVV [MARCHF3, Q86UD3]",4.04,below the threshold,below the threshold,below the threshold,below the threshold,4.09,below the threshold,below the threshold,below the threshold,below the threshold,below the threshold,3.49,below the threshold,below the threshold,5.2,below the threshold,4.6,3.98,below the threshold,4.03,pKd [21]: below the threshold; pKd [22]: 4.17; pKd [23]: 3.69; pKd [24]: 3.53; pKd [25]: below the threshold; pKd [26]: 5.28

# Continued, in another order:
pKd [1],pKd [2],pKd [3],pKd [4],pKd [5],pKd [6],pKd [7],pKd [8],pKd [9],pKd [10],pKd [11],pKd [12],pKd [13],pKd [14],pKd [15],pKd [16],pKd [17],pKd [18],pKd [19],pKd [20],Binder,further results
4.3,below the threshold,below the threshold,below the threshold,below the threshold,4.1,3.77,below the threshold,below the threshold,below the threshold,below the threshold,below the threshold,below the threshold,3.53,4.47,below the threshold,4.87,3.64,below the threshold,3.91,"MQHQRTHTRV [ZSCAN30, Q86W11]",pKd [21]: below the threshold; pKd [22]: 3.95; pKd [23]: below the threshold; pKd [24]: below the threshold; pKd [25]: below the threshold; pKd [26]: 4.38
3.67,below the threshold,below the threshold,below the threshold,below the threshold,below the threshold,below the threshold,below the threshold,below the threshold,below the threshold,below the threshold,4.13,below the threshold,below the threshold,4.05,below the threshold,3.81,5.47,below the threshold,3.92,"NIAESLESLV [PTPRZ1, P23471]",pKd [21]: 4.18; pKd [22]: 5.37; pKd [23]: 4.22; pKd [24]: below the threshold; pKd [25]: below the threshold; pKd [26]: 5.09
